Paper PMC8498639, “3D Domain Swapping Dimerization of the Receiver Domain of Cytokinin Receptor CRE1 From Arabidopsis thaliana and Medicago truncatula” (Frontiers in Plant Science, 2021)
Where two headings read alike, the source gives them in different places.

Tests used:
[1] = target: MtHPt1 (histidine-containing phosphotransfer protein 1 of Medicago truncatula) with N-terminal His6-MBP fusion (Medicago truncatula); assay: BLI; His6-MBP-MtHPt1 (104 nM) immobilised on Ni-NTA sensors; MtCRE1-IC at 2.5, 5, 10, 20 nM; SEC buffer (25 mM HEPES pH 7.5, 50 mM NaCl, 100 mM KCl, 1 mM TCEP) with 10% Kinetic Buffer, with 0.5 mM ATP and 2 mM MgCl2; 25°C; global 1:1 fit
[2] = target: MtHPt1 (histidine-containing phosphotransfer protein 1 of Medicago truncatula) with N-terminal His6-MBP fusion (Medicago truncatula); assay: as above; remark: listed apart in the source
[3] = target: the molecule itself; assay: native gel or EMSA; Native-PAGE of AtCRE1-REC compared with monomeric PR-10 proteins of similar calculated pI
[4] = target: the molecule itself; assay: crystal structure; AtCRE1-REC-K, 2.15 Å, space group P2(1)2(1)2, two subunits in the asymmetric unit; K+ bound
[5] = target: the molecule itself; assay: crystal structure; MtCRE1-REC-Ca, 2.5 Å, space group P3(1)21, one subunit in the asymmetric unit, dimer by a crystallographic twofold; Ca2+ bound

Chain of MtHPt1 (histidine-containing phosphotransfer protein 1 of Medicago truncatula) with N-terminal His6-MBP fusion (Medicago truncatula) (main, as listed by the source): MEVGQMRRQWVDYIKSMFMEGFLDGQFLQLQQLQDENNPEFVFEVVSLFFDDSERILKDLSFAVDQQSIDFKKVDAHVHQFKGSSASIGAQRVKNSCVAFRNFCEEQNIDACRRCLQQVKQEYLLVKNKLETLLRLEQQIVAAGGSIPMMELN

Question: Which Kd [1] does the source give for “MtCRE1-IC (intracellular domain of Medicago truncatula CRE1, Ile352-Ser1003) (from UniProt G7LCC3 352-1003) (domain or fragment)” here?
Answer: Its Kd is 12 to 54 nM.

Question: What about the Kd [2] of the same molecule?
Answer: The Kd was 12 nM.

B1: AtCRE1-REC, complete receiver domain Leu918-Ser1057 (Arabidopsis thaliana CRE1/AHK4) (domain or fragment)
chain: SNALLTGKKILVVDDNIVNRRVAAGALKKFGAEVVCAESGQVALGLLQIPHTFDACFMDIQMPQMDGFEATRQIRMMEKETKEKTNLEWHLPILAMTADVIHATYEECLKSGMDGYVSKPFEEENLYKSVAKSFKPNPISPSS
notes: Ser-Asn-Ala cloning artifact at the N-terminus (vector pMCSG68); AHK4/CRE1/WOL, Arabidopsis thaliana, receiver domain Leu918-Ser1057; numbers count on: UniProt Q9C5U0-2; also called AtCRE1-REC-Mg; source: E. coli BL21 Gold, purified (Ni-NTA, TEV, Superdex75)
Question: B1 was tested. Which “stoichiometry N” value [3] did it give?
Answer: Its value is 2.

B2: AtCRE1-REC, C-terminally truncated receiver domain Leu918-Phe1048 (Arabidopsis thaliana CRE1/AHK4) (domain or fragment)
chain: SNALLTGKKILVVDDNIVNRRVAAGALKKFGAEVVCAESGQVALGLLQIPHTFDACFMDIQMPQMDGFEATRQIRMMEKETKEKTNLEWHLPILAMTADVIHATYEECLKSGMDGYVSKPFEEENLYKSVAKSF
notes: cloning linker at the N-terminus (vector pMCSG68); Ser-Asn-Ala is printed for the longer construct from the same vector, Asn916-Ala917 of the linker are named for this one; AHK4/CRE1/WOL, Arabidopsis thaliana, receiver domain with a 9-residue C-terminal truncation, Leu918-Phe1048; numbers count on: UniProt Q9C5U0-2; also called AtCRE1-REC-K; source: Magic E. coli strain, purified (Ni-NTA, TEV, …)
Question: Does B2 bind [4]?
Answer: Result: binds

B3: MtCRE1-REC (receiver domain of cytokinin receptor CRE1 from Medicago truncatula) (domain or fragment, UniProt G7LCC3 856-994, looked up)
chain: SLLFGKKILVVDDNVVNRRVAAGALKNFGADVKCADSGKAALEMLQFPHKFDACFMDIQMPEMDGFEATRRIREMERTANEETNSECGERKSEFHLPILAMTADVIHATYEECLKCGMDGYVSKPFEEENLYQAVAKFF
notes: Made by proteolysis, not cloned as a domain; residues 936-948 are missing in the map; also called MtCRE1-REC-Ca; source: recombinant MtCRE1-IC from E. coli, limited proteolysis with thermolysin, purified (Superdex 75)
Question: Does B3 bind [5]?
Answer: Result: binds
